Test [1] deals with T1, soluble human Lag3-IgG1-Fc with biotinylated C-terminal Avi-tag (human, biotin on the C-terminal Avi-tag).
T1 construct: also called LAG3-Fc-avi; biotinylated LAG3-Fc antigen
Briefly: A375 MHCII competition ELISA, biotinylated Lag3 250 ng/ml; competitor MHCII on A375 cells.

In test [2] the target is T1, soluble human Lag3-IgG1-Fc with …. Briefly: A375 MHCII competition ELISA at 3 µg/ml, biotinylated Lag3 250 ng/ml; competitor MHCII on A375 cells.
The target of test [3] is T2, Lag3 on Lag3+ NFAT Jurkat effector cells (Promega #CS194801). Briefly: cell-based or functional assay.
Test [4] deals with T3, human LAG3 on recombinant CHO cells (human, UniProt P18627 23-525).
T3 construct: whole, on cells; also called Lag3 cells; recombinant CHO cells expressing Lag3
T3 sequence (looked up): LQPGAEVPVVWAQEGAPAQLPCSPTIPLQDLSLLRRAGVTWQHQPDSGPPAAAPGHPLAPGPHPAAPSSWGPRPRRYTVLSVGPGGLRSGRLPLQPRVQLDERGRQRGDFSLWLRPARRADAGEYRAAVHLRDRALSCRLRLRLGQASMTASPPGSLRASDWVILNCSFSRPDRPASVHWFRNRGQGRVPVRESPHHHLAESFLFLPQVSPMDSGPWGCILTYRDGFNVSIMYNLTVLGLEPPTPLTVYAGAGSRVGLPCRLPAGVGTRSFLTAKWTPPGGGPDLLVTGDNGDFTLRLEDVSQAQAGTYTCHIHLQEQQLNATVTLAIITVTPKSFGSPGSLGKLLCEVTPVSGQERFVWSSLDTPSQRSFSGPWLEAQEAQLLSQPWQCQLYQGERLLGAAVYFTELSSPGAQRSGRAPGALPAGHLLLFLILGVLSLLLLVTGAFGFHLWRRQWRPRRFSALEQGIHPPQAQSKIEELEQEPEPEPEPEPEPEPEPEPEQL
As to the kind of experiment: cell ELISA on CHO cells expressing human LAG3.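 Note: bivalent Fc-format binders titrated in threefold steps from 6 µg/mL, incubated with the cells 2 h at 4 °C, bound antibody detected by HRP-coupled anti-human IgG.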

Test [5] addresses T4, murine LAG3-Fc antigen (R&D Systems, 3328-L3-050) (murine, UniProt Q61790 24-442).
T4 construct: Bought reagent
T4 sequence (looked up): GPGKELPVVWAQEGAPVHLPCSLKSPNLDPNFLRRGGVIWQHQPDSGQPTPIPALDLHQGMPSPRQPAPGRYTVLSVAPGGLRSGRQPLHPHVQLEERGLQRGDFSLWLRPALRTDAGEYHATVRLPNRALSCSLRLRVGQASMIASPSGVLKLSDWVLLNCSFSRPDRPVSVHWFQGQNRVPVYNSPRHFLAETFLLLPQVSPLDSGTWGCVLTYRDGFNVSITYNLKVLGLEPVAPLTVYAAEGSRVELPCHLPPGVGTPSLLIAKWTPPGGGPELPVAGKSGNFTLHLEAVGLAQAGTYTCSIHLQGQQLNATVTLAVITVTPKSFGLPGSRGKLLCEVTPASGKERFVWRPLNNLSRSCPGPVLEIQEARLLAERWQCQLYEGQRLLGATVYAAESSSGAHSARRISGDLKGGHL
As to the kind of experiment: ELISA using murine LAG3-Fc antigen.

Test [6] deals with T5, recombinant human LAG3 Fc Chimera Protein (R&D Systems, 2319-L3) (human, UniProt P18627 23-450).
T5 construct: Bought reagent
T5 sequence (looked up): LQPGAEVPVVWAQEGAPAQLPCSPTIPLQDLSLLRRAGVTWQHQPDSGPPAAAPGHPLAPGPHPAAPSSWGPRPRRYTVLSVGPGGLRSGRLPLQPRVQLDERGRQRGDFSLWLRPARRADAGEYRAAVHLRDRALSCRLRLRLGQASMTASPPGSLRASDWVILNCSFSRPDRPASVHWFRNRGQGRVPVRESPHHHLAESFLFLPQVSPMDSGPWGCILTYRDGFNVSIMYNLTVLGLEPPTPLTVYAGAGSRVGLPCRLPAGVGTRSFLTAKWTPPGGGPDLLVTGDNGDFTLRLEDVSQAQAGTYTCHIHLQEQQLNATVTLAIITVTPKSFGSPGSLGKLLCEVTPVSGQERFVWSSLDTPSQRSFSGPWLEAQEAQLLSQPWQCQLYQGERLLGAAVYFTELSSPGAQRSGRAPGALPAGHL
As to the kind of experiment: ELISA, plate coated with human LAG3 Fc chimera.

Test [7] has as its target T6, cynomolgus LAG3 on transiently transfected HEK293F cells (cynomolgus).
T6 construct: whole, on cells; also called cyno LAG3; cynomolgus Lag3-positive HEK cells
As to the kind of experiment: flow cytometry on HEK293F cells transfected with cyno LAG3, 10 µg/ml.

The target in test [8] is T2, Lag3 on Lag3+ NFAT Jurkat effector …. Briefly: cell-based or functional assay. The source holds these as a separate data set.
For test [9], the target named is T5, recombinant human LAG3 Fc Chimera …. Briefly: SPR (Biacore), aVH-Fc captured by anti-human Fc, human LAG-3 Fc chimera as analyte, 25 C.
The target in test [10] is T7, Lag3 on cynomolgus PBMC/T cells (cynomolgus).
T7 construct: whole, on cells
Briefly: flow cytometry, non-activated cynomolgus PBMC, 10 µg/ml.

Test [11] has as its target T7, Lag3 on cynomolgus PBMC/T cells. As to the kind of experiment: flow cytometry, CD3/CD28-activated cynomolgus PBMC, 10 µg/ml.

Values joined by “and” are separate entries in the source; they are usually repeats but may differ in a detail not shown here. Equal values may be shown once.

B1: bivalent 21B11 aVH-Fc (Fc fusion)
chain: EVQLVESGGGLVQPGGSLRLSCAASGFNIKDTCIGWVRRAPGKGTELVAEICQDIGYTRYADSVKGRFTISADTSKNTAYLQMNSLRAEDTAVYYCAADESVDNFKYWGQGTTVTVSSGGGGSGGGGSDKTHTCPPCPAPEAAGGPSVFLFPPKPKDTLMISRTPEVTCVVVDVSHEDPEVKFNWYVDGVEVHNAKTKPREEQYNSTYRVVSVLTVLHQDWLNGKEYKCKVSNKALGAPIEKTISKAKGQPREPQVYTLPPSRDELTKNQVSLTCLVKGFYPSDIAVEWESNGQPENNYKTTPPVLDSDGSFFLYSKLTVDKSRWQQGNVFSCSVMHEALHNHYTQKSLSLSPGK
Take B1: the half-inhibitory concentration (IC50) in [1] was 0.113 µg/mL and 1.5 nM. In addition, the “% Inhibition” value in test [2] came out at 96.7%. For the same molecule, the “EC50 of restoration of the NFAT luciferase signal (NFAT Lag3 reporter assay: Lag3+ Jurkat, Raji cells, SED)” value in test [3] came to 0.6 µg/mL. For the same molecule, in [4], the EC50 was 0.0428 µg/mL and 0.6 nM; the OD max turned out to be 1.3 OD. For the same molecule, the binding result in test [5] is on record as “no binding”. In test [6], the concentration giving a half-maximal response (EC50) is 0.0157 µg/mL and 0.2 nM; the OD max stood at 1.1 OD. In [7], the “LAG3 positive cells (%)” value turned out to be 78.9% and the “Signal intensity (Geo Mean)” value turned out to be 2750 Geo Mean. Also, the “IC50 for near-complete reduction of luciferase activity (modified NFAT Lag3 reporter assay, Lag3+ Jurkat cells alone)” value (from here on “IC50 for near-complete reduction”) in test [8] turned out to be 0.064 µg/mL. In [9], the off-rate constant (koff) turned out to be 1.8e-05 s⁻¹ and the t1/2 was 1.78 h.

B2: bivalent P21A03 aVH-Fc (Fc fusion)
chain: EVQLVESGGGLVQPGGSLRLSCAASGFNIKDTCIGWVRRAPGKGTELVAEICEDIGYTRYADSVKGRFTISADTSKNTAYLQMNSLRAEDTAVYYCAANEHSVGFNYWGQGTTVTVSSGGGGSGGGGSDKTHTCPPCPAPEAAGGPSVFLFPPKPKDTLMISRTPEVTCVVVDVSHEDPEVKFNWYVDGVEVHNAKTKPREEQYNSTYRVVSVLTVLHQDWLNGKEYKCKVSNKALGAPIEKTISKAKGQPREPQVYTLPPSRDELTKNQVSLTCLVKGFYPSDIAVEWESNGQPENNYKTTPPVLDSDGSFFLYSKLTVDKSRWQQGNVFSCSVMHEALHNHYTQKSLSLSPGK
Regarding B2, the IC50 in test [1] is 0.0581 µg/mL and 0.8 nM. Further, the results for the “Percentage of Lag3 positive cells” value in test [10] and in test [11] were 20.8% and 52.2%, respectively. In addition, the “% Inhibition” value in [2] was determined as 97.4%. Besides, in [3], the “EC50 of restoration of the NFAT luciferase signal (NFAT Lag3 reporter assay: Lag3+ Jurkat, Raji cells, SED)” value was 3.31 µg/mL. Besides, the concentration for a half-maximal effect (EC50) is 0.0401 µg/mL and 0.5 nM in [4]; 0.0901 µg/mL and 1.2 nM in test [6]. For the same molecule, the OD max in test [4] amounted to 1.2 OD; in [6] it was 1.8 OD. Moreover, the binding result in [5] is “no binding”. The “IC50 for near-complete reduction” value in [8] is 0.078 µg/mL. Besides, the koff in test [9] was found to be 1e-05 s⁻¹. In test [9], the t1/2 came to 19.3 h.

B3: bivalent P10C3 aVH-Fc (Fc fusion)
chain: EVQLVESGGGLVQPGGSLRLSCAASGFNIKDTCIGWVRRAPGKGTELVAEICTDAGYTRYADSVKGRFTISADTSKNTAYLQMNSLRAEDTAVYYCAASESPSGFRYWGQGTTVTVSSGGGGSGGGGSDKTHTCPPCPAPEAAGGPSVFLFPPKPKDTLMISRTPEVTCVVVDVSHEDPEVKFNWYVDGVEVHNAKTKPREEQYNSTYRVVSVLTVLHQDWLNGKEYKCKVSNKALGAPIEKTISKAKGQPREPQVYTLPPSRDELTKNQVSLTCLVKGFYPSDIAVEWESNGQPENNYKTTPPVLDSDGSFFLYSKLTVDKSRWQQGNVFSCSVMHEALHNHYTQKSLSLSPGK
Take B3: in test [1], the IC50 is 0.242 µg/mL and 3.2 nM. For the same molecule, the “% Inhibition” value in [2] amounted to 84.9%. Moreover, the “EC50 of restoration of the NFAT luciferase signal (NFAT Lag3 reporter assay: Lag3+ Jurkat, Raji cells, SED)” value in test [3] is 3.9 µg/mL. Further, in [4], the 50% effective concentration (EC50) was 0.0735 µg/mL and 1 nM; the OD max came out at 1.2 OD. For the same molecule, the binding result in test [5] is reported as “no binding”. In test [6], the EC50 is 0.123 µg/mL and 1.6 nM; the OD max was determined as 0.8 OD. Also, in test [9], the koff was 8.9e-05 s⁻¹ and the t1/2 came out at 2.17 h.

B4: bivalent 19G3 aVH-Fc (Fc fusion)
chain: EVQLVESGGGLVQPGGSLRLSCAASGFNIKYQCIGWVRRAPGKGTELVAEICSYDGYTRYADSVKGRFTISADTSKNTAYLQMNSLRAEDTAVYYCAAEESVEGFIYWGQGTTVTVSSGGGGSGGGGSDKTHTCPPCPAPEAAGGPSVFLFPPKPKDTLMISRTPEVTCVVVDVSHEDPEVKFNWYVDGVEVHNAKTKPREEQYNSTYRVVSVLTVLHQDWLNGKEYKCKVSNKALGAPIEKTISKAKGQPREPQVYTLPPSRDELTKNQVSLTCLVKGFYPSDIAVEWESNGQPENNYKTTPPVLDSDGSFFLYSKLTVDKSRWQQGNVFSCSVMHEALHNHYTQKSLSLSPGK
B4: in test [1], the IC50 was 0.224 µg/mL and 3 nM. For the same molecule, the “Percentage of Lag3 positive cells” value in [10] turned out to be 17%. The “% Inhibition” value in test [2] is 91.9%. Moreover, in [4], the 50% effective concentration (EC50) is 0.0636 µg/mL and 0.8 nM; the OD max was 1.3 OD. Also, the “Percentage of Lag3 positive cells” value in test [11] was 54.3%. In addition, in test [5], the binding result is reported as “no binding”. Moreover, in [6], the EC50 was 0.0342 µg/mL and 0.5 nM; the OD max turned out to be 1 OD. Also, in test [7], the “LAG3 positive cells (%)” value stood at 80.3% and the “Signal intensity (Geo Mean)” value came to 2560 Geo Mean. For the same molecule, in test [9], the dissociation rate constant (koff) was determined as 0.00029 s⁻¹ and the t1/2 is 0.672 h.

B5: bivalent P9G1 aVH-Fc (Fc fusion)
chain: EVQLVESGGGLVQPGGSLRLSCAASGFNIKDTCIGWVRRAPGKGTELVAEICQDIGYTRYADSVKGRFTISADTSKNTAYLQMNSLRAEDTAVYYCAGEEGATNFKYWGQGTTVTVSSGGGGSGGGGSDKTHTCPPCPAPEAAGGPSVFLFPPKPKDTLMISRTPEVTCVVVDVSHEDPEVKFNWYVDGVEVHNAKTKPREEQYNSTYRVVSVLTVLHQDWLNGKEYKCKVSNKALGAPIEKTISKAKGQPREPQVYTLPPSRDELTKNQVSLTCLVKGFYPSDIAVEWESNGQPENNYKTTPPVLDSDGSFFLYSKLTVDKSRWQQGNVFSCSVMHEALHNHYTQKSLSLSPGK
Take B5: the concentration for half-maximal inhibition (IC50) in [1] is 0.0408 µg/mL and 0.5 nM. In [10], the “Percentage of Lag3 positive cells” value is 24.4%. For the same molecule, the “% Inhibition” value in test [2] is 96.3%. In addition, in test [3], the “EC50 of restoration of the NFAT luciferase signal (NFAT Lag3 reporter assay: Lag3+ Jurkat, Raji cells, SED)” value was 0.65 µg/mL. In addition, in [4], the EC50 was 0.0173 µg/mL and 0.2 nM; the OD max came to 1.2 OD. For the same molecule, the “Percentage of Lag3 positive cells” value in test [11] amounted to 54.1%. The binding result in [5] is given as “no binding”. Also, in test [6], the concentration for a half-maximal effect (EC50) is 0.0132 µg/mL and 0.2 nM; the OD max was determined as 1.9 OD. The “IC50 for near-complete reduction” value in test [8] came to 0.038 µg/mL. In addition, in [9], the dissociation rate constant (koff) stood at 2e-05 s⁻¹ and the t1/2 was found to be 9.82 h.

The record behind these values is US20200354457A1 (Hoffmann-La Roche, published 2020).
